Experimental data from the supplement of paper PMC9170038.

These sequences were tested on MS2 coat protein (assay: apparent KD of MS2 coat protein; higher = weaker reporter binding). Details: Eterna round: R107; input ligand: none.
In short: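 Apparent KD is reported per design as the median of normalised binding-curve fits across its clusters. The RNA switches were made by on-chip transcription from Illumina sequencing clusters. SNAP-549-labelled MS2 coat protein was then added in twofold steps (0.7 or 1.5 nM to 3 µM; 0.8–1.5 h to 10–20 min per step) in 100 mM Tris-HCl pH 7.5, 80 mM KCl, 4 mM MgCl2, without or with constant ligand.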

Q: For “UUCAAAGGGAACGGUGCUGGUAGCAGAGAUACCAGAGUAAUGAUACUCCCUUGGCAGCUCAGUACAUGAGGAUCACCCAUGUAAU [Exclusion Theophylline A GF24]”, which “apparent KD of MS2 coat protein” value is on record?
A: 13.5 nM

Q: How did the “apparent KD of MS2 coat protein” value turn out when “AAGUAAACAUGAGCAAAGCUCAUGUGCGAAGGAGCGGCGGAAACGCCAGGUAGGUCGCGCACAUGAGCAUCAGCCAUGUGUAUCA [Omei Arginine B SS A v2]” was run?
A: 31 nM

Q: With “ACAUGAGGAUCACCCAUGUACUGGAUCUAACGAGGACCGGUACGGCCGCCACUCGAAGAUAGGACUAUGGAAACAUAGCUUAUCA [Design 1]” as the sequence, how does the “apparent KD of MS2 coat protein” value read?
A: 15.3 nM

Q: For “UCUAGUGCGGGAAGGAGCGCCAUACAUGAGGAUCACCCAUGUUGAGCAUGCUCGUGUACUAGGCAGGUAGGUCGCCCGCUCUACG [Radionle]”, which “apparent KD of MS2 coat protein” value is on record?
A: 27.2 nM

Q: How did the “apparent KD of MS2 coat protein” value turn out when “AGUAGUUGACAAAAGUCAGCUACAAUUGAAGGAGCGGGAUCCUUCCCAGGUAGGUCGCAAUAACAUGAGGAUCACCCAUGUCAAA [ArgAS 4 #BothOrNeither #OpenEnded]” was run?
A: 27.7 nM

Q: For “UGUAUGGACUGAAGGAGCGACUCAAAAUAACAUGAGGAUCACCCAUGUAAGGCGAAAGCCGGUCAGGUAGGUCGCAGUCCAUACU [ArgBX 3]”, which “apparent KD of MS2 coat protein” value is on record?
A: 11.3 nM

Q: “GUCAGUGACUGAAGGAGCGACAUGAGGAUCACCCAUGUCUCCCGUUAUGGGAGUUCCUUAGGUCAGGUAGGUCGCAGUCACUGAC [#1 Exclusion - Arginine B Attempt #29 (Inspired by Omei)]” was tested. Which “apparent KD of MS2 coat protein” value did it give?
A: 123 nM

Q: “AGUCUUGAACGAAGGAGCGACGUACAUGAGGAUCACCCAUGUGGAGCGAAAGCUCCGUAACGUCAGGUAGGUCGCGUUCGAGACA [Omei Arginine B SS A v3]” was tested. Which “apparent KD of MS2 coat protein” value did it give?
A: 9.25 nM

Q: How did the “apparent KD of MS2 coat protein” value turn out when “UGUAUGGACUGAAGGAGCGCCUCAAAAUAACUUGAGGAACACCCAAGUAAGGCGAAAGCCGGGCAGGUAGGUCGCAGUCCAUACU [ArgBX 3]” was run?
A: 24.6 nM

Q: How did the “apparent KD of MS2 coat protein” value turn out when “UGUGUCGUCUGAAGGAGCGGCUCUUGAUCCUCGUGGGACAUGAGGAUCACCCAUGUCUCGAGCCAGGUAGGUCGCAGGCGGCACA [#27 Exclusion - Arginine B]” was run?
A: 26 nM

Q: “ACAUGAGGAUCACCCAUGUAGCGUAGGGAAGGAGCGGAAUAAAGUCCAGGUAGGUCGCCCAUAUGAUGAUCUCACUUAUUAUCGA [#12 Same State - Arginine A]” was tested. Which “apparent KD of MS2 coat protein” value did it give?
A: 31 nM

Q: How did the “apparent KD of MS2 coat protein” value turn out when “AUCCACAGCCGAAGGAGCGCAGUAGGAUGACAUGAGGAUCACCCAUGUGUGUGAUGUGGAUUGCAGGUAGGUCGCGGAGUGGGUU [Exclusion - Arginine B (Freestyle 8)]” was run?
A: 71.7 nM

Q: How did the “apparent KD of MS2 coat protein” value turn out when “AAAAUCCUACCUGAGGAUCACCCAGGUGAAGGAGCGCCCGAAAGGGCAGGUAGGUCGCACCUGAGGAUCACCCUGGUAAACCUAA [ArgEX 22 #DoubleMS2 #OpenEnded]” was run?
A: 44 nM

Q: For “UUCGUUUGCGGAAGGAGCGACGGACAUCGGUGAACAACGCACAUGAGGAUCACCCAUGUACGUCAGGUAGGUCGCCGCUAAGAGU [XArg-B3]”, which “apparent KD of MS2 coat protein” value is on record?
A: 105 nM

Q: Which “apparent KD of MS2 coat protein” value does the source give for “AACGUAUACAGAAGGAGCGUGAUUUGUGUUACUCAUUCAUAUACAUGAGGAUCACCCAUGUCACAGGUAGGUCGCUGUAUUCGUA [JR_ExcArginiB_Sub022]” here?
A: 166 nM

Q: For “UGUAUGGACUGAAGGAGCGGAAAAUAAAUCUGAGGAUCACCCAGGUAAUAGGCGAAAGCCAUCCAGGUAGGUCGCAGUCCAUACU”, which “apparent KD of MS2 coat protein” value is on record?
A: 86.7 nM

Q: How did the “apparent KD of MS2 coat protein” value turn out when “ACGAUAGGACUUGAGGAUCACCCAAGUGAUACCAGCCUGGAAACAGGCCCUUGGCAGCACUAAUACUCCAAUAACCUAUCGAAUA [TheoAX 14 #MicroSwitchBubble #AlternativeMS2]” was run?
A: 232 nM

Q: For “CCGUUUUAUGGCGACAUAGGGCGGACUGAAGGAGCGGUAUAAAAGCCAGGUAGGUCGCAGAGAUCCACAUGAGGAUCACCCAUGU [!0.aA]”, which “apparent KD of MS2 coat protein” value is on record?
A: 39.7 nM

Q: How did the “apparent KD of MS2 coat protein” value turn out when “GCGAUGGAGCGAAGGAGCGUGCUGGUACAUGAGGAUCACCCAUGUGAGUCGCAUCGCUAAGCACAGGUAGGUCGCGCUCCAUCGC [EAB NP+V+V2 #10]” was run?
A: 58.4 nM

Q: For “AACGUAUACAGAAGGAGCGUGAUUUAUUAUUCUUUAAGAUAUACAUGAGGAUCACCCAUGUCACAGGUAGGUCGCUGUAUUCGUA [JR_ExcArginiB_Sub025]”, which “apparent KD of MS2 coat protein” value is on record?
A: 34.3 nM

Q: With “GUUAUGAUAAGAAGGAGCGUCGAAAAUGGGUAAACAUGAGGAUCACCCAUGUAAAGGGAACGACAGGUAGGUCGCUUAUUAUAAC [AstromonsSSArgB#20]” as the sequence, how does the “apparent KD of MS2 coat protein” value read?
A: 190 nM

Same assay, conditions: Eterna round: R107; input ligand: theophylline 20 uM

Q: With “AAAUAAAUACAUGAGGAUCACCCAUGUGAAGGAGCGCGCGUUAGCGCAGGUAGGUCGCACAUGAAUAACUCCGCGCGAAAGCGCA [MAT - Exclusion Arginine A - Mod of Eli - D11]” as the sequence, how does the “apparent KD of MS2 coat protein” value read?
A: 23.7 nM

Q: For “UUCAAAGGGAACGGUGCUGGUAGCAGAGAUACCAGAGUAAUGAUACUCCCUUGGCAGCUCAGUACAUGAGGAUCACCCAUGUAAU [Exclusion Theophylline A GF24]”, which “apparent KD of MS2 coat protein” value is on record?
A: 20.2 nM

Q: With “AAGUAAACAUGAGCAAAGCUCAUGUGCGAAGGAGCGGCGGAAACGCCAGGUAGGUCGCGCACAUGAGCAUCAGCCAUGUGUAUCA [Omei Arginine B SS A v2]” as the sequence, how does the “apparent KD of MS2 coat protein” value read?
A: 33.5 nM

Q: With “ACAUGAGGAUCACCCAUGUACUGGAUCUAACGAGGACCGGUACGGCCGCCACUCGAAGAUAGGACUAUGGAAACAUAGCUUAUCA [Design 1]” as the sequence, how does the “apparent KD of MS2 coat protein” value read?
A: 19.9 nM

Q: How did the “apparent KD of MS2 coat protein” value turn out when “UCAGCACAUGAGGAUCACCCAUGUCGUGAUACCAGCCUGUGCGAAGGCCCUUGGCAGCACAGUCCCGAUUUGCUUAUAUGCACUU [theeternabot_sameState_MS2_Theo_A_48]” was run?
A: 61 nM

Q: With “UCUAGUGCGGGAAGGAGCGCCAUACAUGAGGAUCACCCAUGUUGAGCAUGCUCGUGUACUAGGCAGGUAGGUCGCCCGCUCUACG [Radionle]” as the sequence, how does the “apparent KD of MS2 coat protein” value read?
A: 30.9 nM

Q: With “AGUAGUUGACAAAAGUCAGCUACAAUUGAAGGAGCGGGAUCCUUCCCAGGUAGGUCGCAAUAACAUGAGGAUCACCCAUGUCAAA [ArgAS 4 #BothOrNeither #OpenEnded]” as the sequence, how does the “apparent KD of MS2 coat protein” value read?
A: 26.6 nM

Q: How did the “apparent KD of MS2 coat protein” value turn out when “CCUCAAUAGACGGCCGCCACUGAAACAUGCGGAUACAUGAGGAUCACCCAUGUGGGUGUGUUACGCAGGACCGGGUCAAGACCCG [#12 Same State - Tryptophan B]” was run?
A: 316 nM

Q: With “UGUAUGGACUGAAGGAGCGACUCAAAAUAACAUGAGGAUCACCCAUGUAAGGCGAAAGCCGGUCAGGUAGGUCGCAGUCCAUACU [ArgBX 3]” as the sequence, how does the “apparent KD of MS2 coat protein” value read?
A: 16.1 nM

Q: For “UGUACAUGAGGAUCACCCAUGUUACGCGAUACCAGACAUGAGAGUGUCCCUUGGCAGCGUGGAGCUGAUACGGCGGGAAGCCGGA [#10 SameState-TheophyllineA]”, which “apparent KD of MS2 coat protein” value is on record?
A: 50.2 nM

Q: How did the “apparent KD of MS2 coat protein” value turn out when “GUCAGUGACUGAAGGAGCGACAUGAGGAUCACCCAUGUCUCCCGUUAUGGGAGUUCCUUAGGUCAGGUAGGUCGCAGUCACUGAC [#1 Exclusion - Arginine B Attempt #29 (Inspired by Omei)]” was run?
A: 163 nM

Q: With “AGUCUUGAACGAAGGAGCGACGUACAUGAGGAUCACCCAUGUGGAGCGAAAGCUCCGUAACGUCAGGUAGGUCGCGUUCGAGACA [Omei Arginine B SS A v3]” as the sequence, how does the “apparent KD of MS2 coat protein” value read?
A: 15.6 nM

Q: “AAGGUGAUCCUCGAUACCAGCUCAACAUGAGGAUCACCCAUGUAAGCCUGGAAACAGGCGAGCCCUUGGCAGCGAGUUACAUCAA [(M)'-(Theo1)-(Ms2)-(Theo2)-(M'')]” was tested. Which “apparent KD of MS2 coat protein” value did it give?
A: 78.2 nM

Q: How did the “apparent KD of MS2 coat protein” value turn out when “UGUAUGGACUGAAGGAGCGCCUCAAAAUAACUUGAGGAACACCCAAGUAAGGCGAAAGCCGGGCAGGUAGGUCGCAGUCCAUACU [ArgBX 3]” was run?
A: 23 nM

Q: For “UGUGUCGUCUGAAGGAGCGGCUCUUGAUCCUCGUGGGACAUGAGGAUCACCCAUGUCUCGAGCCAGGUAGGUCGCAGGCGGCACA [#27 Exclusion - Arginine B]”, which “apparent KD of MS2 coat protein” value is on record?
A: 32.6 nM

Q: “ACAUGAGGAUCACCCAUGUAGCGUAGGGAAGGAGCGGAAUAAAGUCCAGGUAGGUCGCCCAUAUGAUGAUCUCACUUAUUAUCGA [#12 Same State - Arginine A]” was tested. Which “apparent KD of MS2 coat protein” value did it give?
A: 42.5 nM

Q: “AUCCACAGCCGAAGGAGCGCAGUAGGAUGACAUGAGGAUCACCCAUGUGUGUGAUGUGGAUUGCAGGUAGGUCGCGGAGUGGGUU [Exclusion - Arginine B (Freestyle 8)]” was tested. Which “apparent KD of MS2 coat protein” value did it give?
A: 72.5 nM

Q: With “AAAAUCCUACCUGAGGAUCACCCAGGUGAAGGAGCGCCCGAAAGGGCAGGUAGGUCGCACCUGAGGAUCACCCUGGUAAACCUAA [ArgEX 22 #DoubleMS2 #OpenEnded]” as the sequence, how does the “apparent KD of MS2 coat protein” value read?
A: 47.6 nM

Q: With “UUCGUUUGCGGAAGGAGCGACGGACAUCGGUGAACAACGCACAUGAGGAUCACCCAUGUACGUCAGGUAGGUCGCCGCUAAGAGU [XArg-B3]” as the sequence, how does the “apparent KD of MS2 coat protein” value read?
A: 134 nM
